{"source": "patent US6084072A", "about": "“Purified lectin and methods of use” (The Regents of the University of Michigan, priority 1993, dated 2000)", "key": {"[1]": {"system": "well differentiated colonic adenocarcinoma sections", "assay": "Inhibition of lectin binding with hapten sugars on tissue sections", "set-up": "species or system human; key to Labeling score: 4^+: Maximum labeling of the brown reaction product; 0: No staining of the slide compared to control sections; 1^+: trace or weak staining definitely not seen on control slides; 2+3^+: stronger staining, but definitely less than maximal", "procedure": "Four micron paraffin embedded tissue sections attached to glass slides were deparaffinized by serial incubations in xylene (twice), absolute ethanol (thrice), 95% ethanol, 70% ethanol, water and finally equilibrated in phosphate buffered saline (PBS), pH 7.0, containing 0.1% bovine serum albumin (BSA) commercially available from Sigma Corp of St. Louis, Mo. The slides were blotted dry adjacent to the tissue sections, and biotinylated lectin was added at a concentration of 10 μg/ml (for ACA) and 20 μg/ml (for PNA) in a quantity sufficient to completely cover the hydrated tissue (100-2001 μl). The lectin was rinsed off after a 30 minute incubation by eight 2-second dips into phosphate buffered saline. The slides were again blotted, and the tissue covered with Streptavidin-horseradish peroxidase (HRP) obtained from Zymed Laboratories, San Francisco, Calif. at a concentration of 10 μg/ml for 30 minutes. The slides were rinsed as mentioned above, and the pigmented reaction product developed by the addition of a freshly prepared chromogen reagent solution prepared within two hours of use as follows.\n3,3'-diaminobenzidine was aliqotted at 5 mg/mL in 0.01 M (Tris) tris hydroxy methyl amino methane saline, pH 7.5 and frozen at -70° C. until use. For use, the aliquot was thawed, diluted 1:10 in 0.01 M (Tris) tris hydroxy methyl amino methane saline pH 7.5, and 3.3 μL of 30% H2 O2 were added to each 5 ml. This solution was allowed to stand for 10 min, and 100-200 μl was applied to the tissue sections that had been incubated earlier with biotinylated lectin and Streptavidin-HRP. After 10 min, the slides were rinsed with albumin-free phosphate buffered saline. The tissues were briefly counterstained for 50 seconds with Gill's #3 hematoxylin bovine serum albumin, commercially available from Sigma Corp. of St. Louis, Mo., rinsed with water, and serially dehydrated using graded alcohols and xylene, and embedded in Permount, a trademarked, commercially available product of Allied-Fischer Scientific of Livonia, Mich.\nThe specificity of lectin binding was evaluated by preincubating the biotinylated lectin with inhibitory hapten sugar for 1-2 hours prior to its application to the tissue. In each instance, the reagents were prepared so that the final concentration of lectin on the slide was either 10 or 20 μg/ml and the hapten sugar was as indicated in the results. Galactose, lactose, GalNAc, and galactose-β1-3N-acetylgalactosamine-α-O-benzyl (T-antigen-α-O-benzyl) were also obtained from Sigma Corp.\nThe stained sections were examined with a light microscope using a 25× and 40× objective lenses and 10× eyepiece. Evaluation of lectin binding required the use of several approaches. First, the binding specificity was confirmed by coincubation of lectin with hapten sugars known to bind the lectin maximally. Maximum labeling of the brown reaction product was arbitrarily assigned a score 4^+. See Boland, C. R., Bresalier, R. S., and Roberts, J. A. \"Assay of lectin binding sites in colonic cancer-associated mucins: comparison of fluorescence microscopy with a quantitative chromatographic technique.\" J. Histochem. Cytochem., 36: 1329-1334, 1988. No staining of the slide compared to control sections (i.e., in which lectin was omitted from the staining procedure) was assigned a score of 0. Intermediate scores of 1^+ (trace or weak staining definitely not seen on control slides) and 2+3^+ (stronger staining, but definitely less than maximal) were assigned. […] See Boland. This method was used to confirm the binding specificity to known \"positive\" tissues and to evaluate changes in lectin binding after neuraminidase treatment.\nSpecimens of well differentiated colonic cancers were incubated with biotinylated lectins. Working concentrations on the slide were 10 μg/ml for ACA and 20 μg/ml for PNA. The hapten sugars galactose (Gal), N-acetylgalactosamine (GalNAc), and Galβ1,3GalNAc-α-O-benzyl (T-antigen) were used to inhibit lectin binding to the tissues. […]"}, "colonic adenocarcinoma": {"system": "colonic adenocarcinoma", "type": "binding, human", "conditions": "cancer specimens"}, "HNPCC tissues": {"system": "HNPCC tissues", "assay": "Lectin histochemistry, HNPCC rectal biopsies", "type": "binding, human", "conditions": "biotinylated ACA 10 μg/mL or PNA 20 μg/mL", "description": "Rectal biopsies were obtained from individuals who were first degree relatives of patients with hereditary nonpolyposis colorectal cancer (HNPCC) as identified by H. T. Lynch, M.D. These patients were the siblings or offspring of index patients who fit the criteria for Lynch Syndrome I or II. See Drzeniek, Z., and Usowska, E. (1979) Arch. Immunol Ther. Exp. 27, 253-262. However, since there is no definitive genetic or phenotypic marker for this familial syndrome, it is not possible to be certain that these patients represent a single homogenous genetic abnormality. The biopsies were fixed in formalin, and embedded in paraffin for tissue sectioning.\n(§1) Four micron paraffin embedded tissue sections attached to glass slides were deparaffinized by serial incubations in xylene (twice), absolute ethanol (thrice), 95% ethanol, 70% ethanol, water and finally equilibrated in phosphate buffered saline (PBS), pH 7.0, containing 0.1% bovine serum albumin (BSA) commercially available from Sigma Corp of St. Louis, Mo. The slides were blotted dry adjacent to the tissue sections, and biotinylated lectin was added at a concentration of 10 μg/ml (for ACA) and 20 μg/ml (for PNA) in a quantity sufficient to completely cover the hydrated tissue (100-2001 μl). The lectin was rinsed off after a 30 minute incubation by eight 2-second dips into phosphate buffered saline. […]"}, "[2]": {"system": "normal colonic epithelium", "type": "binding, human"}, "FAP colonic tissue": {"system": "FAP colonic tissue", "assay": "Lectin histochemistry, familial adenomatous polyposis (FAP) colonic tissue", "type": "binding, human", "conditions": "biotinylated ACA 10 μg/mL or PNA 20 μg/mL", "description": "Full thickness specimens of colonic tissue were obtained from colectomy specimens for familial adenomatous polyposis at Johns Hopkins Hospital, fixed in formalin, and embedded in paraffin for tissue sectioning. The tissue specimens contained normal-appearing flat mucosa familial adenomatous polyposis, or FAP-normal, as well as a polypoid, adenomatious tissue familial adenomatous polyposis, or FAP-abnormal.\nas §1\nTherefore, each individual crypt of Lieberkuhn was given a score from 0-4^+, and the labeling was expressed as a \"weighted average\", or, the sum of scores from 100 crypts, which could range from 0 (all crypts not labeled) to 400 (all 100 crypts maximally labeled). […]"}, "[3]": {"system": "human red blood cells (A, B, and O)", "conditions": "see Lotan; cited from earlier work"}, "amaranthin": {"target": "amaranthin (Amaranthus caudatus, UniProt Q71QF2)", "sequence (Q71QF2 entry or part of it)": "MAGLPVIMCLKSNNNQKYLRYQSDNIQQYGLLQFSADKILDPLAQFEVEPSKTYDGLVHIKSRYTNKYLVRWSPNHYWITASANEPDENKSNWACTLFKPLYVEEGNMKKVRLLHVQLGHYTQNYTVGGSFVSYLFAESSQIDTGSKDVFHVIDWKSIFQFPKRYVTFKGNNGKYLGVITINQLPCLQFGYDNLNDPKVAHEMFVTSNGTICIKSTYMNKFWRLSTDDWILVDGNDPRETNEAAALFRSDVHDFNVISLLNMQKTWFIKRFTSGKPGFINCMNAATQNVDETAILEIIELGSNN", "assay": "Precipitation of amaranthin by glycoproteins and glycoconjugates, native or glycosidase treated", "type": "binding", "conditions": "untreated glycoprotein or glycoconjugate; 80 μg amaranthin", "procedure": "Glycosidase digestions, and in particular exo-β-galactosidase digestions were carried out for 9 hours at 37° C. in 0.1 M sodium citrate, pH 4.3 using 0.1 unit of enzyme/μmol of terminal galactosyl group. Endo-α-N-acetylgalactosaminidase treatment of asialo-ovine submaxillary mucin was done as described in Sadler, J. E., Rearick, J. L., Paulson, J. C., and Hill, R. L. (1979). GSC Exo-α-N-acetylgalactosaminidase digestion of asialo-ovine submaxillary mucin was carried out according to the recommendations of Genzyme of Boston, Mass. Glycoproteins were analyzed for carbohydrate composition, before and after glycosidase treatment, as described.\nPrecipitation assays were conducted in 1.5 ml centrifuge tubes by the method of So and Goldstein. Indicated amounts of glycoprotein were added to 80 μg of amaranthin, and the total volume was adjusted to 250 μl with phosphate buffered saline. The tubes were incubated at 37° C. and then kept at 4° C. for 2 days. The precipitates were centrifuged, washed with cold Phosphate buffered saline, dissolved in 0.05 N NaOH and analyzed for protein by the method of Lowery et al. using bovine serum albumin as the standard. […] Inhibition was determined relative to the amount of precipitate formed in the control with no sugar added. […]"}}, "note": "Several values for one entry are separate records, joined by “and”; a condition that tells them apart may be missing. Identical values can stand only once."}
{"molecule": "PNA: peanut (Arachis hypogaea) agglutinin, T-antigen binding lectin (protein, UniProt P02872 24-273, looked up) Galactose-binding lectin: AETVSFNFNSFSEGNPAINFQGDVTVLSNGNIQLTNLNKVNSVGRVLYAMPVRIWSSATGNVASFLTSFSFEMKDIKDYDPADGIIFFIAPEDTQIPAGSIGGGTLGVSDTKGAGHFVGVEFDTYSNSEYNDPPTDHVGIDVNSVDSVKTVPWNSVSGAVVKVTVIYDSSTKTLSVAVTNDNGDITTIAQVVDLKAKLPERVKFGFSASGSLGGRQIHLIRSWSFTSTLITTTRRSIDNNEKKIMNMASA", "values": [{"measurement": "GalNAc concentration that inhibited labeling", "setting": "[1]", "value": "≥ 100", "unit": "mM"}, {"measurement": "T-antigen concentration that inhibited labeling", "setting": "[1]", "value": "≥ 100", "unit": "µM"}, {"measurement": "galactose concentration that inhibited labeling", "setting": "[1]", "value": "≥ 10", "unit": "mM"}, {"measurement": "lactose concentration that inhibited labeling", "setting": "[1]", "value": "≥ 10", "unit": "mM"}, {"measurement": "Labeling score", "setting": "[1]; Gal 2.5 mM", "value": "Trace"}, {"measurement": "Labeling score", "setting": "[1]; Gal 10 mM", "value": 0}, {"measurement": "Labeling score", "setting": "[1]; Gal 20 mM", "value": 0}, {"measurement": "Labeling score", "setting": "[1]; Gal 100 mM", "value": 0}, {"measurement": "Labeling score", "setting": "[1]; Gal 400 mM", "value": 0}, {"measurement": "Labeling score", "setting": "[1]; GalNAc 100 mM", "value": 0}, {"measurement": "Labeling score", "setting": "[1]; GalNAc 250 mM", "value": 0}, {"measurement": "Labeling score", "setting": "[1]; Lactose 200 mM", "value": 0}, {"measurement": "Labeling score", "setting": "[1]; Lactose 400 mM", "value": 0}, {"measurement": "Labeling score", "setting": "[1]; T-antigen 100 μM", "value": 0}, {"measurement": "Labeling score", "setting": "[1]; T-antigen 200 μM", "value": 0}, {"measurement": "Labeling score", "setting": "[1]; T-antigen 400 μM", "value": 0}, {"measurement": "Effect of Newcastle disease virus neuraminidase on labeling", "setting": "colonic adenocarcinoma", "value": "much less effect"}, {"measurement": "Effect of V. Cholerae neuraminidase on labeling", "setting": "colonic adenocarcinoma", "value": "greatly enhanced"}, {"measurement": "Staining (global score 0-3+)", "setting": "HNPCC tissues", "value": "rarely binds and 0 and 1^+"}, {"measurement": "Effect of neuraminidase treatment on labeling", "setting": "[2]", "value": "did not produce an increase"}, {"measurement": "Labeling of normal colon in the tissue survey", "setting": "[2]", "value": "No labeling"}, {"measurement": "Staining (global score 0-3+)", "setting": "[2]; biotinylated ACA 10 μg/mL or PNA 20 μg/mL", "value": "does not bind and 0"}, {"measurement": "Staining (global score 0-3+)", "setting": "FAP colonic tissue", "value": "does not bind and 0"}, {"measurement": "agglutination of native A, B, or O red blood cells, in words", "setting": "[3]", "value": "does not agglutinate"}]}
{"molecule": "asialoglycophorin: desialylated glycophorin (protein, UniProt P02724 20-150, looked up, desialylated, desialylated glycophorin) Glycophorin-A: LSTTEVAMHTSTSSSVTKSYISSQTNDTHKRDTYAATPRAHEVSEISVRTVYPPEEETGERVQLAHHFSEPEITLIIFGVMAGVIGTILLISYGIRRLIKKSPSDVKPLPSPDTDVPLSSVEIENPETSDQ", "values": [{"measurement": "precipitation of amaranthin, in words", "setting": "amaranthin", "value": "most active precipitating agent"}]}
{"molecule": "glycophorin: native glycophorin, major component of red blood cell membranes (protein, UniProt P02724 20-150, looked up) Glycophorin-A: LSTTEVAMHTSTSSSVTKSYISSQTNDTHKRDTYAATPRAHEVSEISVRTVYPPEEETGERVQLAHHFSEPEITLIIFGVMAGVIGTILLISYGIRRLIKKSPSDVKPLPSPDTDVPLSSVEIENPETSDQ", "values": [{"measurement": "precipitation of amaranthin, in words", "setting": "amaranthin", "value": "small amount of precipitate"}]}
